Assay: soluble on expression in E. coli; label from the status in PepcDB or PDB records

Soluble on expression in E. coli, not soluble:
MGSDKIHHHHHHKTEEHEKIEVLYETTLNLIHLLVEQGVIKQEVADEMIRKAEQKAKASQQQAREQGGQPPAGEPKKGEVRVTYVPEHIKKEIRDQLREEVVGQAKQERWGNVNATPEWLDRFTLEGDIRLREQADFFGDRNAPAANFQAIGQQIDNTTKDSHHRERIRMRLGINANVTRGVDLGLRLTTGNVNGPAVTGDLMGGSPTSTLQTLGTYNSKFSFVLDQAYLKLSPWDWLTVSGGRFPNPFFVGTVGNIYTGTIGKAPHTIPTAGVVHTDLLWDADVNFEGLAVNLHPWKKQERTIKPFLNAGIFPLQKINQSETVKAKDKWFYGAQAGIEWVPEGADTKIRLGAAYYDFENISGVRNPNFGDTLFNQTAPLFRQKGNSLFNIDNDGDPTTNLWALASDYKIANATLVADYSRFKPIHVIGTLDYARNVGYDQDRILARTGQDIKPEINAYQARLTVGYPVISERHQWQVLGFYRRSERDSMLDAFTDSNYLLGGTNHKGYTIQGLYGVAHNTWVGLRYMSYDNISGLPLSIDSVNLDLNARF, MGSDKIHHHHHHLAIINDYWSTQAEAFTEISVDELTSEKNALWKSILKPFVQTDRKLEILDVGCGAGFFEIFLSCLGHHVTAVDFNGKMLAEARKNIEKLGRPELTKLMQMDAQNLAFQDSVFDIVISRNMTWVLENPQRAYGEWLRVLKPHGKLINFDANWFLHLRDDTARRNFEEGQAAVVEHGFELKESDHGGELDNIFRELPLSGCWRPQWDFMTLANMGCEEIAVKFSLPKGLYDEYYEQLYKAIPTFMLCAVKTG, MGSDKIHHHHHHLAKRKNHAQAIETTGANLGFEPQLWQTANALRGSMDAAEYKHVVLGLIFLKYISDAFEEHRERLQNIPNADPEDPDEYRADNVFWVPPDARWVELRNNARQPNIGELIDQAMIAVERDNPSLKGVLPKDYARPALDQQRLGQLIDLVSNIPVGTASARSKDVLGRVYEYFLSQFASAEGKKGGEFYTPRCVVRLLVEMLEPYQGRVYDPCCGSAGMFIQSVEFIEAHATGNGNGSRARARISIYGQELNYTTWRLAKMNLAIRGIDGRIEQGDTFRNDRFPDLKADYILANPPFNMKEWGGEQLRNDKRWQYGIPPVGNANFAWVQHIVHHLAPAGVAGFVLANGSMSSNQSGEGEIRRKLIEADLVDCMVALPGQLFYSTQIPACLWFLARNRNNGKFRDRRKQILFIDARRLGRMVDRIHRELTDEEIERIACTYHAWRGESDAGEYRDIPGFCKSASLEDVRKHGYVLTPGRYVGSEVREDDDEPFAEKMQWLVAQLREQQAEAAKLDEAIVANLQELGFWEQKR, MGSDKIHHHHHHLAQLYFYYSAMNAGKSTSLLQSSYNYRERGMNTLVLTAAIDDRYGVGKVASRIGIQADATVFGSEDNLMDLIATHHSQQQLHCVLVDESQFLSKTQVRQLTDVVDKLDIPVLCYGLRSDFRGELFIGSQYLLAWADKLVELKTICFCGRKANMVVRRDGAGNPVRDGAQVAIGGNESYESMCRKHFSELVWD, MGSDKIHHHHHHLDLAPEDYYGAGNFWKEASQPKAFMLGLHAQLRSYYDMFYTLGELRGGTQRVGTSSLNTSLNYADIRSQNISEDIPGISNWNGLYSPIMQVNHFIQEVENGCTFLDDATRSRYLGQAYGMRALYYFMLYRTFGGVPLITKVDILDGKPSADKFYVERATPEATMEFIKADINKSENYFGNNTSFDAYDWSRYATLMLKAEIYMWAAKVSITGFTATGATDLQTAKTALSGIIGHFELMDNFASIFSCDNKKNTEIIFAMPFIEGEASNDGGRFLYQDAVFLGQAYGRNGKVIEKDTLNLKGTGGVFRDEYTEDFWKTFKEGDSRRDATFMEYYMKNDNGTLSEFGCVMKKRIGTINSNDNRIYISDIPVYRYADALLMMAEIENGLNNPCASYINEVRKRAYGDTFEENKYTEGSYAENELAILQERDKEFVSEGKRWFDVLRMHDASGRSLVFSANANYPGTNPILGTEEAYKMLWPVNIGTLNVNPLLTQTPGYGKK, MGSDKIHHHHHHLDTIPTTYVDAGSVFGKTGDAEKVLNGGWNYLMETFNSYANPGYGAMLRANDAMGSDVVLNSKYGFRTHNEFSAIYGKGGTNTLSWLLAYRVINDCNGVLDNIDAAEGTQADRNRIKGQALALRGFLYLHLASCYSFAIDKDPDAVCAPIYTQSTDETIAAEGKPASSVSEVYAQSINDLEEALELIPETYVRDAKHKIDNEVVLGILSRACLYARQWEKAKTYSDKLLAKDNYLMTESEYKAGFNSVDNKEWIWGHAQTNDQSNASYQFHYLDTTTKGSYYYSFNVDPYFRDLFEDGDYRKEMLFWATDPGADVESAAYVWMRNSKFRFRDIENQLGDIVLMRVAEIYLINAEAKAHLNDPDAINKLNDLKTARGAKTIHTNLSQQDLLETIWLERRKELWGEGFSLIDIIRNQQTVVRNAYPEGPIDYIYTDENGQTHTLKKKTQGHRFFNFPDKSAFCPNSKYYLYRITDSEELANKNLYKDHPKLSIYTK, MGSDKIHHHHHHLKSAEGSTWNCCPIDWRAFQSNCYFPLTDNKTWAESERNCSGMGAHLMTISTEAEQNFIIQFLDRRLSYFLGLRDENAKGQWRWVDQTPFNPRRVFWHKNEPDNSQGENCVVLVYNQDKWAWNDVPCNFEASRICKIPGTTLN, MGSDKIHHHHHHLNGHGYHVTGTKTTQDGVEAARMSGIECYQLVLTPELECDADELSALLQVDVLIVTLPASRTAEGGEGYAQAVQQLVNMARVFHVPRIIFTSSTSVYGDGSGTVRETSPLQPTTVAGKTLVSLEQWLQHLPDISVDILRLAGLVGGDRHPGRFLAGKTNLPRGNHGVNLVHQEDVLAAILLLLKLPNGGHIYNLCATEHPARQDFYPEQARRLHVSTPQFAPVTDSSQGRIVDGQRICHELGFDYQYPNPSTMPLNAGESR, MGSDKIHHHHHHLRPDLEHYYLIDQYLENKLTGQELAAFEQQLMQDKAFANEVQEQRMLNNLILEAELKSVRSQIEKDLLNMQTPSFFRMHWQWISAGALCLLGSLFFMLPGKKDIQTVSLQKSAASHIEKENNPDIAPVENTTQKTATALNLPAKTDISDIVTRTQATDTAQAGSLVIAGTPVIVPVNTKTEPALETTAGEENKKTDCSLTKITSVITTENSCMNTETGSIHIDKISGGIAPYTYTLNNKKIKEKNVSALGAGIYEVKISDRNGCLSEQKISILEKNCTPAIQQGTKFNINPMLGETCSIAFDTDKKGSLTIYNRSGKIVYRVTNPSLDYIEWNGSDGTGALAEAGLYVYLIDYTDGTKVTGEVTITR, MGSDKIHHHHHHLRRLLNTLYVTTPDSYLAREGENILIRLEEKIVFRIPSHNIEAIVYFGYPGASPSLLGLCAEKGITVSFFSPNGRFLARVEGPQTGNVLLRRKQYRMADEENQVPVLAKYFIAAKILNSRAVLQRGRRDHPDKVGDSIERSIALLAGSVKKVFDSENLNDIRGLEGDAAQRYFSEVDNLILEQKQDFFMAARSRRPPLDNVNALLSFFYTLLVHECRAALESVGLDPAVGFLHRDRPGRPSLALDLMEELRPYLGDRMVLSLINRKQINKDDFITKENGAVYVLPDTRKMLLTVWQKRKQEEIIHPYLEEKIPIGLLPYTQALLLARFLRGDLDAYPAFIWK, MGSDKIHHHHHHLSCCGQIGKITVGNGIWGILEEGMQSKAGTADQGWALEEKLDEFNRHQHPFNGSGADESFAYVIKKGDQVVGGVAASSDDNAIGYIELLWVDETMRRQGLGRALLATVEQALQAAGCKRVRLETFDYQAPAFYLENGYHEFGKLNYDYAGVIEYFFVKMLSLPIGYNIPPAFSIEAAEDLAMEAIENKLHAYNVKMKPLLQQKMGVTFTFLAEENGQCIGGIFGYSTMYKIGYIESLWVAETNRHAGVGTALVDVLVNALKDFGCPIVHLDTMSYQGAAFYKALGFEQFGQLTYPEIDAAEVFFVKHLVSVGERTINANK, MGSDKIHHHHHHLTWPEASKAASENGSTLVWPFGACEQHGPHLPLITDTFFAENILIKTLNRLPENMPIWMMPSQSIGFSPEHQAFPGTLSLSADVLISMVTDVGQQIASMGFNRLVFFNAHGGQIGLLQAVSRQLRIQCPSIAVLPCFLWSGVPGLDQLLPEKEVEEGLHAALAETSLMLHMARDLVRNDSYLEIKNVDKQIVTTPKGWSLEGASPCAWLTEDLSSSGVIGDASSSNSELGAALENALVDHWIALFTSLLESDWPPIRSERPVSSS, MGSDKIHHHHHHMAANNTITFYDLALSTGATISPFVWATKYALKHKGFDLDVVPGGFTGILERTGGKTERLPAIVDDGEFVLDSWGIVEYLDAKYPDRPVLIPHESVAATLKALDNWFWNAAVGPWMFCFCQDYRDLSLPQDHEYVTHSREKMLGRKLEEVQAGREERLPKISAALEPLRAALAQHQWLGGSSPNYADYRIMGGILFTASVCKTPVLANDDPLRDWIERCLDLYGGLGRHPGLFPLFGLEQREGDPDLFNRAAGQGGIYKRNTGPESTRAETQRITEGMKK, MGSDKIHHHHHHMAATFLDIAITPDVMDVQHEMGSDSLWQTPRSRRQADRFGDSEAGMIATRDSFYLATVSQSGWPYIQHRGGPPGFLHLLDDITLAMADFGGNRQYITTGNLRGSDRACLFLMDYPRRARLKIYATVEVLAAEDHPQLLAQVAPANYRARIERLFLFHLQAFDWNCPQHITPRYSAQQVAEYSQNLQQRIHDLEQENQRLQQQLARRGE, MGSDKIHHHHHHMAAVAHVKIDAAGEKRVLYLVDKSGFGGVQTIAYTLMRHGVDERIGMDFFFLRNINDRFGMEDVREPNVFYSRATHRYSLRPFVEILRFIREKKVSILHLNGNKSIILGLVIKKLFQPTIKIIAHEHGGVFDYSRWYAAFLKSFRNSFDLFITISNYRKHFLVERCLVAPSAIRVIDNFVDPARLATASASACGHTDRCDSEGDKPFVIGYVGGLSRIKGCDVLIRALPPLRERLGNFRVMIAGDGPARAELEELVAALGLGDIVSFLGFVDPPGIAYAQFDMMVIPSRSEEGPICLYEAWMMGLPVVASNAPVLNERIRDGETGILFQSDEPCDLAEKIYSVCRNPDVAAHIRAGGSCEAARHTVERYRGDLRDVYLSL, MGSDKIHHHHHHMACGRMYHFNVFAYGVEEILREVSKKGTESDIRLYNRKEEDGVMTFIEPIKYPDKVSSLTDSIYPTDLFIINGENLDKYFAETVIALDLFGKTRGIIVASEDKQSTIRKLLKDTNIQPEFFSGRPMEIIDRIKAFKIERNEQDTLVVIDHYFKVKSVGTVILGFVLSGKIRKHQDLYLSGINREVQVRSIQVNDVDFDEAEAGTRVGVALKNVEVEELSRGMFLAEKPFEYTNQVKDSVVFHKSLKGRDTMSDPYISDLMNFVKCNPEGDAYTTRFKLPLLKDSFVMADQNGFPRVVGYSKVKR, MGSDKIHHHHHHMADKRTEGSGKGGAKAAGKGGLGEVVLLSGGNPQIAKGYGDAPVQAYIAAMPGWKRAVGERLDAIVERTVPGVYKAVKWNSPFYGFEGEGWFLSFHCMTKYIKVAFFRGASLQPLPPGASKQKDVRYLDIYEDAPFDEARFADWVAQASRLPGERM, MGSDKIHHHHHHMADLCVNLVPLFDALPQDEKMQIEKLVQHKNYQKGEVIIDPTINDNLVIVADGNAKQYTLDEDGYENVLQILHTGDYIGEDWLFGQKNINNYVEATEHSEICLLKRQDLLKLMHKQPELSIRLLELSIVKVSEMQKQIHLMALPKVEDRLLKYLQTYADEIGKNNFTLPLKMKDLALYLGTTPETLSRKFALLEKQGQLKRQLRRIELFEN

Reference: the DeepSol protein solubility set
